Substitutions are numbered along the chain they refer to.
B1: VH3/VK6_K322A (antibody, V domains shown)
VH: EVQLVQSGAEVKKPGASVKVSCKASGYAFTHYYIYWIRQAPGQGLEWMGGVNPSSGGTHYAEKFQGRVTLTVDTSSSTAYMELSSLRSEDTAVYYCTRSEYDYGLGFAYWGQGTLVTVSS
VL: DIVMTQSPLSLPVTPGEPASISCRSSQSLLSSRTPKNYLAWYQQKPGQSPQLLIYWASTRKSGVPDRFSGSGSGTDFTLKISRVEAEDVGVYYCKQSYNLLTFGQGTKLEIK
B2: VH6/VK8_K322A (antibody, V domains shown)
VH: B1 VH with R38K, M48I, S55N, Y60F, A61N, Q65K, G66S, L70I, T74K, S76A
VL: EIVMTQSPDSLAVSLGERATINCKSSQSLLNSRTPKNYLAWYQQKPGQPPKLLIYWASTRESGVPDRFTGSGSGTDFTLTISSLQAEDVAVYYCKQSYNLLTFGQGTKLEIK
B3: VH6/VK8_K322A_RadMab (antibody, V domains shown)
VH: B1 VH with R38K, M48I, S55N, Y60F, A61N, Q65K, G66S, L70I, T74K, S76A
VL: EIVMTQSPDSLAVSLGERATINCKSSQSLLNSRTPKNYLAWYQQKPGQPPKLLIYWASTRESGVPDRFTGSGSGTDFTLTISSLQAEDVAVYYCKQSYNLLTFGQGTKLEIKR
B4: VH3/VK6_K322A_RadMab (antibody, V domains shown)
VH: B1 VH
VL: DIVMTQSPLSLPVTPGEPASISCRSSQSLLSSRTPKNYLAWYQQKPGQSPQLLIYWASTRKSGVPDRFSGSGSGTDFTLKISRVEAEDVGVYYCKQSYNLLTFGQGTKLEIKR
B5: chAPOMAB_VH0/VK0_K322A (antibody, V domains shown)
VH: EVQLQQPGAELVKPGASVKLSCKASGYAFTHYYIYWIKQRPGQGLEWIGGVNPSNGGTHFNEKFKSKATLTVDKSSSTAYMQLSSLTSEDSAVYYCTRSEYDYGLGFAYWGQGTLLTVSS
VL: EIVMSQSPSSLAVSAGEKVTMSCKSSQSLLNSRTPKNYLAWYQQKPGQSPKLLIYWASTRKSGVPDRFTGSGSGTDFTLTISSVQAEDLAVYYCKQSYNLLTFGAGTKLEL

Target: T1, La/SSB N-terminal domain (La-NTD) (human, UniProt P05455)
T1 chain: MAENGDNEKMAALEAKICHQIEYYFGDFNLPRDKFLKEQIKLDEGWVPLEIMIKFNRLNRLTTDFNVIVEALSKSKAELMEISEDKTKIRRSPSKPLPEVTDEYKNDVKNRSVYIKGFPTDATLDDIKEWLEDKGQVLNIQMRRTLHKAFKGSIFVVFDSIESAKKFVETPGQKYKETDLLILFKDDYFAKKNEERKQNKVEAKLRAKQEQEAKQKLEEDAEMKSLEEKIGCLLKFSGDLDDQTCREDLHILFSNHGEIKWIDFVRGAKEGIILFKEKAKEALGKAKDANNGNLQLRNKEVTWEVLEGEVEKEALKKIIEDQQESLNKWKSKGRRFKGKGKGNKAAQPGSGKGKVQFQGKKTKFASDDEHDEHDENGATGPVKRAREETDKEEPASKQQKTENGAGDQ
Test: SPR

Row | Binder | Kd
1 | B1 | 13.6 nM
2 | B2 | 14.5 nM
3 | B3 | 8.72 nM
4 | B4 | 8.27 nM
5 | B5 | 18.2 nM

Reference: patent US20260284244 (published 2026)
